29 molecules from patent US20200325187A1 (Genentech, published 2020) can be followed below.

Usually IC50 stands for the point on the concentration scale where inhibition reaches its midpoint. Read a low IC50 as inhibition by little substance. Broadly, the Kd is the concentration at which binding is half-saturated.

Like-named read-outs stand apart in the source and are kept apart here. No end group written: not given here.

For experiment [1], the target named is T1, hVEGF-A (human, UniProt P15692-4 27-191, limits assumed).
T1 construct: also called human VEGF-A; WT
As to the kind of experiment: phage competition ELISA, soluble CKP. For orientation: An ELISA detects its analyte on a solid surface through an enzyme-linked reagent.

Experiment [2] deals with T2, hVEGF-A (8-109) (human, UniProt P15692 214-315).
T2 sequence (looked up): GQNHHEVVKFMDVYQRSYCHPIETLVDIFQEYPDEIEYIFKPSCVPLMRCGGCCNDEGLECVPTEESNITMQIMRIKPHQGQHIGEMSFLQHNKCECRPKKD
As to the kind of experiment: spot phage ELISA. Put shortly:
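Phage clones from four selection rounds were grown overnight at 37 °C with M13-KO7 helper phage. Bound phage was detected with anti-M13-HRP and TMB, with binding to BSA alone run in parallel as background.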

For experiment [3], the target named is T1, hVEGF-A. As to the kind of experiment: cell-based or functional assay.
Experiment [4] has as its target T1, hVEGF-A.
In experiment [5] the target is T2, hVEGF-A (8-109). As to the kind of experiment: spot phage ELISA. As to the method:
(§1) After four rounds of binding selection, individual phage clones were picked and inoculated into 450 μl 2YT media containing 50 µg/ml Carbenecillin and M13-KO7 helper phage in 96-well blocks, which were grown at 37° C. overnight. […] The plates were washed and bound phage was detected with anti-M13-HRP followed by TMB substrate. In these assays, phage binding to BSA alone was tested in parallel to assess background binding. […] Positive clones were subjected to DNA sequence analysis.
This is another data set of the same source.

The target in experiment [6] is T2, hVEGF-A (8-109). As to the kind of experiment: phage competition ELISA.
Experiment [7] has as its target T2, hVEGF-A (8-109). As to the kind of experiment: phage competition ELISA (clone on phage; the concentration varied on the axis is that of hVEGF (8-109)).
Experiment [8] concerns the target T1, hVEGF-A. As to the kind of experiment: cell-based or functional assay. The source holds these as a separate data set.
Experiment [9] addresses T1, hVEGF-A. As to the kind of experiment: phage competition ELISA, soluble CKP. The source holds these as a separate data set.
For experiment [10], the target named is T2, hVEGF-A (8-109). As to the kind of experiment: spot phage ELISA. The method, then:
as §1
The source holds these as a separate data set.

Experiment [11] deals with T2, hVEGF-A (8-109). As to the kind of experiment: phage competition ELISA (clone on phage; the concentration varied on the axis is that of hVEGF (8-109)). The source holds these as a separate data set.
Experiment [12] concerns the target T2, hVEGF-A (8-109). The description is as above. The source holds these as a separate data set.
Experiment [13] addresses T1, hVEGF-A. As to the kind of experiment: KDR-VEGF competition ELISA.
The target of experiment [14] is T1, hVEGF-A. As to the kind of experiment: cell-based or functional assay. The source holds these as a separate data set.
The target of experiment [15] is T1, hVEGF-A. As to the kind of experiment: SPR. As to the method: Depending on the format of the assay either a streptavidin sensor (SA) or a dextran-coated (CM5) sensor was utilized as described below.
Reaction was then quenched by addition of 10 molar excess of Glycine pH 8.0 and the sample was buffer exchanged into PBS using an Amicon 0.5 mL 3000 MWCO ultra-centrifugal filters (EMD Millipore). The biotinylation state of the protein was verified by LC-MS analysis. Biotinylated VEGF-A was then captured on the surface until a resonance unit (RU) signal of about ˜400. For immobilization of VEGF-A on CM5 sensor, the surface was first activated with a mixture of N-ethyl-N′-(3-dimethylaminopropyl)carbodiimide hydrochloride and N-hydroxysuccinimide (EDC/NHS) according to the supplier instructions. VEGF-A was then diluted into coupling buffer (0.1 M Acetate Buffer, pH 5.0) and injected until the signal reached about ˜400 RU followed by a wash with 1 M ethanolamine pH 8.0 to quench remaining activated sites.
(In general: SPR reads the build-up and loss of mass on a sensor chip optically.)

Consider GCPTTRFKQYCKQDSDCLAGCVCGPNGFCG (designed binder) [VEGF_CKP6], for which the IC50 with hVEGF-A [1] is 3000 nM. In addition, in the experiment with hVEGF-A (8-109) [2], the ELISA turned out to be 3.5 and the “S/N vs BSA” value came out at 51.9.
On to GCNIMLPFWGCGRDFECMEQCICQYYQSCG (designed binder) [VEGF_CKP9.54.90.67], for which, in the experiment with hVEGF-A [3], the Cellular IC50 came to 1.1 nM and the FOLD [..] [..] TO VARIANT 9.54.90 was 1.23 fold. In the experiment with hVEGF-A [4], this molecule showed an IC50 (read off the curve) of 12 to 20 nM.
As to GCQDPTFNWALYCKQDSDCLAGCVCQMYQSCG (designed binder) [VEGF_CKP7], the IC50 in the experiment with hVEGF-A [1] amounted to 12000 nM. Further, the ELISA with hVEGF-A (8-109) [5] is 0.1; with hVEGF-A (8-109) [2], 3.4. The “S/N vs BSA” value with hVEGF-A (8-109) [5] is 1.3; with hVEGF-A (8-109) [2] it was 54.5.
Consider GCNIMLPFWGCGQSFECLAGCICQYYQSCGIA (designed binder) [9.54.1-2], for which the “fold improvement in binding affinity compared to 9.54.1” value (“fold improvement … to 9.54.1” for short) in the experiment with hVEGF-A (8-109) [6] was about 10 fold.
Regarding GCNIMLPFWGCGQSFECLAGCICQYYQSCGGS (designed binder) [9.54.1-63], in the experiment with hVEGF-A (8-109) [6], the “fold improvement … to 9.54.1” value was about 10 fold.
GCNIMLPFWGCGQSFECLAGCICQYYQSCGLS (designed binder) [9.54.1-42]: in the experiment with hVEGF-A (8-109) [7], the “IC50 (read off the curve)” value is about 0.08 nM. Further, in the experiment with hVEGF-A (8-109) [6], the “fold improvement … to 9.54.1” value is about 10 fold.
For GCNIMLPFWGCGQSFECLAGCICQYYQSCGTR (designed binder) [9.54.1-36], in that order: about 0.06 nM and about 10 fold.
For the molecule GCNIMLPFWGCGQSFECLAGCICQYYQSCGVH (designed binder) [9.54.1-90], the “IC50 (read off the curve)” value with hVEGF-A (8-109) [7] is about 0.08 nM. Further, the “fold improvement … to 9.54.1” value with hVEGF-A (8-109) [6] is about 10 fold.
As for GCNIMLPFWGCKQDFDCLAGCICQYYQSCGFH (designed binder) [9.54-28], the “IC50 (read off the curve)” value with hVEGF-A (8-109) [7] was about 0.1 nM. Further, the “fold improvement in binding affinity compared to 9.54” value with hVEGF-A (8-109) [6] is about 10 fold.
For GCDVLQPFWGCKQDSDCLAGCVCHWYQSCG (designed binder) [VEGF_CKP9.2], the “Cellular IC50” value with hVEGF-A [8] is 270 nM. In the experiment with hVEGF-A [9], this molecule returned an IC50 of 168 nM. Further, in the experiment with hVEGF-A (8-109) [10], the ELISA is 2.4 and the “S/N vs BSA” value was found to be 31.1.
In the experiment with hVEGF-A [3], GCNIMLPFWGCGRDFECMSDCICQYYQSCG (designed binder) [VEGF_CKP9.54.90.12] showed a Cellular IC50 of 1.2 nM and an FOLD [..] [..] TO VARIANT 9.54.90 of 1.12 fold. For the same molecule, the IC50 (read off the curve) with hVEGF-A [4] worked out at 30 nM.
The corresponding values for GCNIMLPFWGCGRDFECMNQCICQYYQSCG (designed binder) [VEGF_CKP9.54.90.13] are 0.96 nM, 1.41 fold and 20 nM.
In the experiment with hVEGF-A [1], GCRTPWEPHDITCKQDSDCLAGCVCGPNGFCG (designed binder) [VEGF_CKP11] displayed an IC50 of 80000 nM. Besides, in the experiment with hVEGF-A (8-109) [2], the ELISA came out at 4.1 and the “S/N vs BSA” value turned out to be 57.5.
In the experiment with hVEGF-A [1], GCVTPWKPHWINCKQDSDCLAGCVCGPNGFCG (designed binder) [VEGF_CKP13] had an IC50 of 80000 nM. Further, in the experiment with hVEGF-A (8-109) [2], the ELISA is 3.5 and the “S/N vs BSA” value stood at 56.3.
The corresponding values for GCTTPWPPHEIMCKQDSDCLAGCVCGPNGFCG (designed binder) [VEGF_CKP12] are 60000 nM, 3.5 and 55.2.
For the molecule GCDVMQPYWGCEMDFDCLAGCVCHWYNSCGSM (designed binder) [9.63.44-6], in the experiment with hVEGF-A (8-109) [11], the binding result was “binds”.
GCDVMQPYWGCEMDFDCLAGCICHWYNSCGWK (designed binder) [9.63.44-14 (SEQ ID NO: 532)]: the “IC50 (read off the curve)” value with hVEGF-A (8-109) [12] was about 0.07 nM.
For GCDVMQPYWGCEMDFDCLVGCVCHWYNSCGDE (designed binder) [9.63.44-10], the “IC50 (read off the curve)” value with hVEGF-A (8-109) [12] was about 5 nM.
As to GCDVMQPYWGCEMDFDCLAGCICHWYNSCGTS (designed binder) [9.63.44-8], in the experiment with hVEGF-A (8-109) [12], the “IC50 (read off the curve)” value was about 0.02 nM.
Consider GCDVMQPYWGCEMDFDCLAGCVCHWYNSCGPL (designed binder) [9.63.44-12], for which, in the experiment with hVEGF-A (8-109) [12], the “IC50 (read off the curve)” value was about 0.1 nM.
Consider GCDVMQPYWGCEMDFDCLAGCVCHWYNSCGQF (designed binder) [9.63.44-13], for which the “IC50 (read off the curve)” value in the experiment with hVEGF-A (8-109) [12] is about 0.3 nM.
Still for that read-out and setting: for GCDVMQPYWGCEMDFDCLAGCICHWYNSCGLQ (designed binder) [9.63.44-9] the value was about 0.03 nM.
Consider GCDVMQPYWGCEMDFDCLAGCVCHWYNSCGDL (designed binder) [9.63.44-11], for which, in the experiment with hVEGF-A (8-109) [12], the binding result is “binds”.
GCDVMQPYWGCEMDFDCLAGCVCHWYNSCGGI (designed binder) [9.63.44-7]: in the experiment with hVEGF-A (8-109) [11], the “IC50 (read off the curve)” value is about 0.03 nM.
In the experiment with hVEGF-A [13], GCNIMLPFWGCGQSFECLAGCVCQYYQSCG (designed binder) [VEGF_CKP9.54.1] registered an IC50 of 0.2 nM. In the experiment with hVEGF-A (8-109) [7], the “IC50 (read off the curve)” value is about 0.3 nM. Besides, the “Cellular IC50” value with hVEGF-A [14] was found to be 1.47 nM. In the experiment with hVEGF-A [15], this molecule returned a Kd of 2.2 nM. In the experiment with hVEGF-A (8-109) [2], the ELISA turned out to be 2.4 and the “S/N vs BSA” value was found to be 29.9.
GCNIMLPYWGCGQSFECLAGCVCQYYQSCG (designed binder) [VEGF_CKP9.54.1.F8Y]: the dissociation constant Kd with hVEGF-A [15] is 0.78 nM.
Regarding GCNIMLPFWGCGRDFECFYECICQYYQSCG (designed binder) [VEGF_CKP9.54.90.62], in the experiment with hVEGF-A [3], the Cellular IC50 amounted to 0.92 nM and the FOLD [..] [..] TO VARIANT 9.54.90 amounted to 1.47 fold. The molecule further had an IC50 (read off the curve) in the experiment with hVEGF-A [4] of 20 nM.
In the experiment with hVEGF-A [1], GCRDLDVKWDCKQDSDCLAGCFCQYYSSCG (designed binder) [VEGF_CKP10] registered an IC50 of 1000 nM. Besides, in the experiment with hVEGF-A (8-109) [2], the ELISA is 3.2 and the “S/N vs BSA” value was determined as 43.7.

B1: VEGF_CKP9.54.90-Alkyn (designed binder)
chain: GCNIMLPFWGCGRDFECLAGCVCQYYQSCG
modifications: cysteine pairing not given here; also: -Alkyn: alkyne modification, position not given here
In turn, B1 had a Kd with hVEGF-A [15] of 0.49 nM.
